T1: recombinant human endothelial protein C receptor (human, UniProt Q9UNN8 18-238)
T1 construct: endothelial protein C receptor, human, recombinant; also called EPCR; human EPCR
T1 sequence (looked up): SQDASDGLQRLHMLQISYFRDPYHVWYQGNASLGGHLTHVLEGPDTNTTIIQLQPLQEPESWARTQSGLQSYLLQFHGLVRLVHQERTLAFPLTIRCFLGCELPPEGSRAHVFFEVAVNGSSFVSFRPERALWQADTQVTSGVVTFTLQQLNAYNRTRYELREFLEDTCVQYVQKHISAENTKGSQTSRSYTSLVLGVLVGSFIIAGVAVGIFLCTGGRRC

B1: recombinant human EPCR (receptor)
chain: SQDASDGLQRLHMLQISYFRDPYHVWYQGNASLGGHLTHVLEGPDTNTTIIQLQPLQEPESWARTQSGLQSYLLQFHGLVRLVHQERTLAFPLTIRCFLGCELPPEGSRAHVFFEVAVNGSSFVSFRPERALWQADTQVTSGVVTFTLQQLNAYNRTRYELREFLEDTCVQYVQKHISAENTKGSQTSRSYTS
B2: recombinant human EPCR (receptor)
chain: B1 chain
modifications: construct limits not given; taken as the soluble extracellular domain after the signal peptide, from the candidate's features
B3: P. reichenowi CDO62090.1 CIDRα1.4 (domain or fragment)
chain: TKINVLYSGDKQGDITQKLQNFCSDENKENGTNYQKWECYYKDEKQNKCKMDKTSGKNMTEDKIMSFDEFFYSWVTNFLIDTINWENELKNCMNNTILTDCNDGCKINCVCFDKWVKQKENEWENVKKVFENKNGISDNYYNKLKYIFEGFFFQVLYKLNQDEAKWNQLKQKLKEIIVSSKANTGKEHSQDAIKPLLEYIKEKSTICKDNNTN
B4: P. reichenowi CDO61774.1 CIDRα1.4 (domain or fragment)
chain: TEIKVIVSGNEQGDISKKLEDFCSDENNENGKNYQKWECYYKSSQNNKCKMETKSGTSITEEKVTSFDAFFDLWVKNLLRDSIKWETELKDCINNSNVTDCNNDCNKNCVCFDKWVKQKEEVWKNMKTVLGNQKENLDNYYNKLNGLFKGFFFPVMFELNHDEAKWNKLMENLKKKIESSKENRGTVNSQDAIELLLEYLKEKSTICKDNNTN

Key:
Details in all cases: both partners purified
[1] = target: P. reichenowi var71 CIDRα1.4 (Plasmodium reichenowi); assay: BLI; Octet Qke; CIDR domains on recombinant human EPCR, protocol as reported previously (ref. 40); 1:1 fit
[2] = target: T2, P. reichenowi CDO62090.1 CIDRα1.4 (Plasmodium reichenowi, UniProt A0A060RMQ3 1-4072); assay: as above
T2 construct: CIDRα1.4 domain of the P. reichenowi erythrocyte membrane protein 1 (PrEMP1) of entry CDO62090.1; Construct His6-MBP-TEV-CIDR-StrepII; also called Pr CDO62090.1 CIDRα1.4; source: pSHuffle expression hosts (New England Biolabs), purified (two-step process); not shown: StrepII, C-terminal, kept

[3] = target: T3, P. reichenowi CDO61774.1 CIDRα1.4 (Plasmodium reichenowi, UniProt A0A060RM78 1-3575); assay: as above
T3 construct: CIDRα1.4 domain of the P. reichenowi erythrocyte membrane protein 1 (PrEMP1) of entry CDO61774.1; Construct His6-MBP-TEV-CIDR-StrepII; also called P. reichenowi CD061774.1 CIDRα1.4; Pr CDO61774.1 CIDRα1.4; source: pSHuffle expression hosts (New England Biolabs), purified (two-step process); not shown: StrepII, C-terminal, kept

[4] = target: T1, recombinant human endothelial protein C …; assay: BLI; Octet Qke; EPCR on the biosensor, CIDR domain in solution; protocol as reported previously (ref. 40); double-reference subtracted data fitted to a 1:1 binding model

Binder	koff [4]	kon [4]	also measured
B1			Kd [1]: 23 nM
B2			Kd [2]: 60 nM; Kd [3]: 6 nM
B3	0.000443 s⁻¹	7350 M⁻¹ s⁻¹	
B4	0.000293 s⁻¹	47300 M⁻¹ s⁻¹	Kd [4]: 6.2 nM
